The text below walks through data of patent US20260055186A1 (REPERTOIRE IMMUNE MEDICINES, published 2026).

In assay [1] the target is T1, human CD8 on human T cells (human, UniProt P01732 22-235).
T1 construct: whole, on cells; the antibodies were raised against human CD8 alpha; also called CD8 on human CD8+ T cells; hCD8
Description: flow cytometry, human CD8+ T cells, antibody at 0.2 nM, anti-human IgG detection (MFI AF647). How it is done:
The 24 humanized 02A01-derived anti-CD8 antibodies (excluding 02A01-VK3(D30E/N35Q)) were screened for their ability to bind human CD8 by evaluating binding to CD8+ T cells. The non-humanized parent (“02-Parent”) and the non-humanized parent comprising a heavy chain M39L liability mutation (“02-Parent-VH-M39L”) were used as controls. […] Cells were washed with 1×phosphate buffered saline (PBS) containing 1 mg/mL bovine serum albumin (PBS/BSA) and then stained with a 1:100 dilution of DyLight650-conjugated anti-human IgG H+L polyclonal antibody (ThermoFisher cat. no. Sa5-10129) in PBS/BSA. Following a 20-30 min incubation at 4° C., the cells were washed once with PBS/BSA, and then resuspended in PBS/BSA for analysis on a FACSCelesta using Diva software (BD Biosciences). The resulting data were analyzed using FlowJo. Data were quantified and reported as Max fluorescence intensity (MFI) of human IgG-Fc. […] Complete replacement of the HCDR1 (antibodies comprising VH5) eliminated binding to the CD8+ T cells.
In general terms: Flow cytometry measures light scatter and fluorescence of single cells or particles in a stream.

Assay [2] has as its target T1, human CD8 on human T cells. Put plainly: flow cytometry, human CD8+ T cells, antibody at 5 nM, anti-human IgG detection (MFI AF647). How it is done:
(§1) The 16 above-referenced humanized 03A01-derived anti-CD8 antibodies were screened for their ability to bind human CD8 by evaluating binding to CD8⁺ T cells. The non-humanized parent (“03-Parent”) and the non-humanized parent comprising a heavy chain D64E liability mutation (“03-Parent-VH-D64E”) were used as controls. […] Cells were washed with 1×phosphate buffered saline (PBS) containing 1 mg/mL bovine serum albumin (PBS/BSA) and then stained with a 1:100 dilution of DyLight650-conjugated anti-human IgG H+L polyclonal antibody (ThermoFisher cat. no. Sa5-10129) in PBS/BSA. Following a 20-30 min incubation at 4° C., the cells were washed once with PBS/BSA, and then resuspended in PBS/BSA for analysis on a FACSCelesta using Diva software (BD Biosciences). The resulting data were analyzed using FlowJo. Data were quantified and reported as Max fluorescence intensity (MFI) of human IgG-Fc. […] Complete replacement of the LCDR1 (antibodies comprising VK4) eliminated binding to the CD8⁺ T cells.

Assay [3] addresses T1, human CD8 on human T cells. Put plainly: flow cytometry on human CD8+ T cells, titration, apparent KD. How it is done:
as §1
(§2) The binding affinities of five of the above-referenced humanized anti-CD8 antibodies to human CD8 were determined by evaluating binding to CD8 human T cells using the method described above. Binding to human CD8+ T cells was tested at 7 serial 5-fold dilutions of each humanized 03A01 variant (from 50 nM to 3.2 pM). The resulting data were analyzed using FlowJo.

The target of assay [4] is T1, human CD8 on human T cells. Put plainly: flow cytometry on human CD8+ T cells, titration. The method, then:
as §1, §2

Assay [5] deals with T1, human CD8 on human T cells. Description: flow cytometry on human CD3+ T cells, apparent KD, 4PL fit. How it is done:
(§3) The amino acid sequences of the resulting murine anti-CD8 antibodies 02A01, 03A01, 04D08, 05F10, and 11F05 are provided in Tables 1-3 herein above. These antibodies were recombinantly produced. Their binding affinity to CD8 expressed on the cell surface was measured by flow cytometry, and their respective binding affinities are reported in Table 8 and Table 9. Briefly, human or cynomolgus monkey CD3⁺ T cells were incubated with […] of anti-CD8 antibodies (from 250 nM to […]) for 30 minutes. Following the incubation, unbound antibodies were washed away, and the bound antibodies were detected with a AlexaFluor-647-labeled anti-human Fc detection antibody. The median fluorescence intensity of AlexaFluor-647 on the live cells was used to evaluate anti-CD8 antibody levels on the cell surface. Binding affinity (KD) values for anti-CD8 antibody T cell binding were determined with GraphPad Prism 7.0 using 4-Parameter logistic regression.

Assay [6] addresses T2, cynomolgus monkey CD8 on cynomolgus cells (cynomolgus monkey).
T2 construct: whole, on cells; also called cynomolgus CD8
Put plainly: flow cytometry on cynomolgus CD3+ T cells, apparent KD, 4PL fit. How it is done: as §3

T1 sequence (P01732 22-235): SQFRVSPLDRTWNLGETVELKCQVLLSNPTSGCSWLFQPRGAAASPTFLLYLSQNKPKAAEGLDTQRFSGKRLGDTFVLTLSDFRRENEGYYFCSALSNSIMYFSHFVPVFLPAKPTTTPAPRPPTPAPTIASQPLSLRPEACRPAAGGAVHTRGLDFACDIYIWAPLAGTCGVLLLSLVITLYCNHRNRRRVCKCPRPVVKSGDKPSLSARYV

B1: humanized 02A01-VH5-VK1 (antibody, human IgG1, V domains shown)
VH: EVQLVQSGAEVKKPGATLKISCKASGYTFTDYYMHWVQQAPGKGLEWIGLVNPNNGGNIYNQNFKGRATLTVDTSTSTAYMELSSLRSEDTSVYYCGRVPLYTSHGMDYWGQGTLVTVSS
VL: EIVLTQSPATLSVSPGERATISCRASESVDSYDINSMHWYQQKPGQPPRLLIYRASHLQSGIPARFSGSGSRTDFTLTISSVEPEDFATYYCQQSNEDPLTFGQGTKLEIK
notes: human IgG1 format; VH5 has the HCDR1 of the top human germline hit
Turning to B1, the binding result in assay [1] is “no binding (tested: 0.2 nM)”.

B2: humanized 02A01-VH5-VK2 (antibody, human IgG1, V domains shown)
VH: EVQLVQSGAEVKKPGATLKISCKASGYTFTDYYMHWVQQAPGKGLEWIGLVNPNNGGNIYNQNFKGRATLTVDTSTSTAYMELSSLRSEDTSVYYCGRVPLYTSHGMDYWGQGTLVTVSS
VL: EIVLTQSPATLSVSPGERATISCRASESVDSYDINSMHWYQQKPGQAPRLLIYRASHLQSGIPARFSGSGSRTDFTLTISSVEPEDFATYYCQQSNEDPLTFGQGTKLEIK
notes: as for B1
Regarding B2, in assay [1], the binding result was “no binding (tested: 0.2 nM)”.

B3: humanized 02A01-VH5-VK3 (antibody, human IgG1, V domains shown)
VH: EVQLVQSGAEVKKPGATLKISCKASGYTFTDYYMHWVQQAPGKGLEWIGLVNPNNGGNIYNQNFKGRATLTVDTSTSTAYMELSSLRSEDTSVYYCGRVPLYTSHGMDYWGQGTLVTVSS
VL: EIVLTQSPATLSLSPGERATISCRASESVDSYDINSMHWYQQKPGQAPRLLIYRASHLQSGIPARFSGSGSRTDFTLTISSLEPEDFATYYCQQSNEDPLTFGQGTKLEIK
notes: as for B1
Consider B3, for which the binding result in assay [1] is recorded as “no binding (tested: 0.2 nM)”.

B4: humanized 03A01-VH1-VK4 (antibody, human IgG1, V domains shown)
VH: EVQFQESGPGLVKPSQTLSLTCTVTGYSITSDFAWNWIRQPPGKELEWMGYISYSGDTNYNPSLRSRITISRDTSKNQFSLKLSSVTAADTATYYCTIRGYYTDSAFVFWGQGTLVTVSS
VL: DIQMTQSPSTLSVSVGDRVTITCRASQSISSWLAWYQQKPGKAPKLLISGATSLETGVPSRFSGSGSGLEYTLTISSLQPDDFATYYCQQYWNSPFTFGQGTKLEIK
notes: human IgG1 format; VK4 has the LCDR1 of the top human germline hit
For the molecule B4, the binding result in assay [2] is recorded as “no binding (tested: 5 nM)”.

B5: humanized 03A01-VH4-VK4 (antibody, human IgG1, V domains shown)
VH: EVQFQESGPGLVKPSQTLSLTCTVSGYSITSDFAWNWIRQPPGKGLEWIGYISYSGDTYYNPSLKSRVTISRDTSKNQFSLKLSSVTAADTAVYYCTIRGYYTDSAFVFWGQGTLVTVSS
VL: DIQMTQSPSTLSVSVGDRVTITCRASQSISSWLAWYQQKPGKAPKLLISGATSLETGVPSRFSGSGSGLEYTLTISSLQPDDFATYYCQQYWNSPFTFGQGTKLEIK
notes: as for B4
Turning to B5, the binding result in assay [2] is “no binding (tested: 5 nM)”.

B6: humanized 03A01-VH3-VK1 (antibody, human IgG1, V domains shown)
VH: EVQFQESGPGLVKPSQTLSLTCTVSGYSITSDFAWNWIRQPPGKGLEWMGYISYSGDTNYNPSLKSRVTISRDTSKNQFSLKLSSVTAADTAVYYCTIRGYYTDSAFVFWGQGTLVTVSS
VL: DIQMTQSSSTLSVSLGDRVTITCKASDHINNWLAWYQQKPGKAPRLLISGATSLETGVPSRFSGSGSGLEYTLTISSLQPDDFATYYCQQYWNSPFTFGQGTKLEIK
notes: human IgG1 format; also called 03-VH3/VK1
As to B6, in assay [3], the Kd is 1.65 nM. In addition, the “Fold Change to Parental Apparent KD” value in assay [4] worked out at 1.8 fold.

B7: humanized 03A01-VH3-VK4 (antibody, human IgG1, V domains shown)
VH: EVQFQESGPGLVKPSQTLSLTCTVSGYSITSDFAWNWIRQPPGKGLEWMGYISYSGDTNYNPSLKSRVTISRDTSKNQFSLKLSSVTAADTAVYYCTIRGYYTDSAFVFWGQGTLVTVSS
VL: DIQMTQSPSTLSVSVGDRVTITCRASQSISSWLAWYQQKPGKAPKLLISGATSLETGVPSRFSGSGSGLEYTLTISSLQPDDFATYYCQQYWNSPFTFGQGTKLEIK
notes: as for B4
For B7, in assay [2], the binding result is reported as “no binding (tested: 5 nM)”.

B8: humanized 03A01-VH2-VK4 (antibody, human IgG1, V domains shown)
VH: EVQFQESGPGLVKPSQTLSLTCTVSGYSITSDFAWNWIRQPPGKGLEWMGYISYSGDTNYNPSLRSRITISRDTSKNQFSLKLSSVTAADTAVYYCTIRGYYTDSAFVFWGQGTLVTVSS
VL: DIQMTQSPSTLSVSVGDRVTITCRASQSISSWLAWYQQKPGKAPKLLISGATSLETGVPSRFSGSGSGLEYTLTISSLQPDDFATYYCQQYWNSPFTFGQGTKLEIK
notes: as for B4
For the molecule B8, the binding result in assay [2] is “no binding (tested: 5 nM)”.

B9: humanized 03A01-VH3-VK3 (antibody, human IgG1, V domains shown)
VH: EVQFQESGPGLVKPSQTLSLTCTVSGYSITSDFAWNWIRQPPGKGLEWMGYISYSGDTNYNPSLKSRVTISRDTSKNQFSLKLSSVTAADTAVYYCTIRGYYTDSAFVFWGQGTLVTVSS
VL: DIQMTQSPSTLSASVGDRVTITCKASDHINNWLAWYQQKPGKAPKLLISGATSLETGVPSRFSGSGSGLEYTLTISSLQPDDFATYYCQQYWNSPFTFGQGTKLEIK
notes: human IgG1 format; also called 03-VH3/VK3
Turning to B9, the Kd in assay [3] was found to be 1.98 nM. For the same molecule, in assay [4], the “Fold Change to Parental Apparent KD” value is 2.1 fold.

B10: 05F10 (antibody, V domains shown)
VH: EVQLVESGGGLVKPGGSLKLSCAASGFTFSSFAMSWVRQTPAKRLEWVATISSGDLSANYPDTVKGRFTISRDNAKNTLYLQMSSLRSEDTAMYYCTRPPFYFSNDWFAYWGQGTLVTVSA
VL: DVVMTQTPLSLPVSLEDQASISCRSSQSLEHSNGNTYLHWYLQKPGQSPRLLIYKVSNRFSGVPDRFSGSGSGTDFTLKISRVEAEDLGVYFCSQSTHVPFTFGSGTKLEIK
notes: Recombinantly produced murine anti-CD8 IgG
Regarding B10, the Kd in assay [5] came out at 0.242 nM; in assay [6] it was 39.8 nM.
